From article PMC10897159, “Structural insights into the activation mechanism of antimicrobial GBP1” (The EMBO Journal, 2024)

What was measured:
[1] = biological target: the molecule itself; test: SEC; analytical SEC (Superdex 200 5/150), 20 µM protein with 200 µM GDP, 300 µM AlCl3, 10 mM NaF (GDP•AlFx); 50 mM Tris-HCl pH 7.9, 150 mM NaCl, 5 mM MgCl2
[2] = biological target: the molecule itself; test: cross-linking; BS3 at 20-times molar excess, 20 µM protein, with 200 µM GDP, 300 µM AlCl3, 10 mM NaF (GDP•AlFx); 50 mM HEPES, 150 mM NaCl, 5 mM MgCl2; SDS-PAGE
[3] = biological target: the molecule itself; test: specific GTPase activity against protein concentration (HPLC), quadratic fit; apparent Kd of dimer formation; non-farnesylated GBP1, 1 mM GTP, 37 °C, 50 mM Tris-HCl pH 7.9, 150 mM NaCl, 5 mM MgCl2; dimer to monomers
[4] = biological target: the molecule itself; test: light scattering-based polymerization assay; 10 µM farnesylated GBP1, polymerization started with 1 mM GTP (for the pivot point mutants also with LPS added); 50 mM Tris-HCl pH 7.9, 150 mM NaCl, 5 mM MgCl2; absorbance at 350 nm over 40 min; dimers to polymers

B1: isolated LG domain of GBP1 Δ207-216 (domain or fragment, human, UniProt P32455 1-317, looked up)
chain: MASEIHMTGPMCLIENTNGRLMANPEALKILSAITQPMVVVAIVGLYRTGKSYLMNKLAGKKKGFSLGSTVQSHTKGIWMWCVPHPKKPGHILVLLDTEGLGDVEKGDNQNDSWIFALAVLLSSTFVYNSIGTINQQAMDQLYYVTELTHRIRSKSSPDENENEVEDSADFVSFFPDFVWTLRDFSLDLEADGQPLTPDEYLTYSLGGGSETFNLPRLCIRKFFPKKKCFVFDRPVHRRKLAQLEKLQDEELDPEFVQQVADFCSYIFSNSKTKTLSGGIQVNGPRLESLVLTYVNAISSGDLPCMENAVL
notes: LG domain of GBP1, human; stop codon in place of A318; also called α4’ variant LG domain construct; source: E. coli, pQE-80L, purified (Ni Sepharose HP, Superdex 200)
stoichiometry N [1]: 2

B2: GBP1 Δ207-213, farnesylated (natural protein, human, UniProt P32455 1-592, looked up)
chain: MASEIHMTGPMCLIENTNGRLMANPEALKILSAITQPMVVVAIVGLYRTGKSYLMNKLAGKKKGFSLGSTVQSHTKGIWMWCVPHPKKPGHILVLLDTEGLGDVEKGDNQNDSWIFALAVLLSSTFVYNSIGTINQQAMDQLYYVTELTHRIRSKSSPDENENEVEDSADFVSFFPDFVWTLRDFSLDLEADGQPLTPDEYLTYSLGGGSGGGSQKDETFNLPRLCIRKFFPKKKCFVFDRPVHRRKLAQLEKLQDEELDPEFVQQVADFCSYIFSNSKTKTLSGGIQVNGPRLESLVLTYVNAISSGDLPCMENAVLALAQIENSAAVQKAIAHYEQQMGQKVQLPTETLQELLDLHRDSEREAIEVFIRSSFKDVDHLFQKELAAQLEKKRDDFCKQNQEASSDRCSALLQVIFSPLEEEVKAGIYSKPGGYRLFVQKLQDLKKKYYEEPRKGIQAEEILQTYLKSKESMTDAILQTDQTLTEKEKEIEVERVKAESAQASAKMLQEMQRKNEQMMEQKERSYQEHLKQLTEKMENDRVQLLKEQERTLALKLQEQEQLLKEGFQKESRIMKNEIQDLQTKMRRRKACTIS
modifications: farnesyl moiety at the C-terminal CaaX box motif
notes: GBP1, human, full-length construct; also called helix α4’ variant
binding result [2]: binds

B3: GBP1 Δ207-213, non-farnesylated (natural protein, human, UniProt P32455 1-592, looked up)
chain: MASEIHMTGPMCLIENTNGRLMANPEALKILSAITQPMVVVAIVGLYRTGKSYLMNKLAGKKKGFSLGSTVQSHTKGIWMWCVPHPKKPGHILVLLDTEGLGDVEKGDNQNDSWIFALAVLLSSTFVYNSIGTINQQAMDQLYYVTELTHRIRSKSSPDENENEVEDSADFVSFFPDFVWTLRDFSLDLEADGQPLTPDEYLTYSLGGGSGGGSQKDETFNLPRLCIRKFFPKKKCFVFDRPVHRRKLAQLEKLQDEELDPEFVQQVADFCSYIFSNSKTKTLSGGIQVNGPRLESLVLTYVNAISSGDLPCMENAVLALAQIENSAAVQKAIAHYEQQMGQKVQLPTETLQELLDLHRDSEREAIEVFIRSSFKDVDHLFQKELAAQLEKKRDDFCKQNQEASSDRCSALLQVIFSPLEEEVKAGIYSKPGGYRLFVQKLQDLKKKYYEEPRKGIQAEEILQTYLKSKESMTDAILQTDQTLTEKEKEIEVERVKAESAQASAKMLQEMQRKNEQMMEQKERSYQEHLKQLTEKMENDRVQLLKEQERTLALKLQEQEQLLKEGFQKESRIMKNEIQDLQTKMRRRKACTIS
notes: GBP1, human, full-length construct; also called helix α4’ variant; source: E. coli, pQE-80L, purified (Ni Sepharose HP, Superdex 200)
stoichiometry N [2]: 2
fold lower dimerization affinity than wild-type GBP1 [3]: 3 fold

B4: isolated LG domain of GBP1 Δ207-213 (domain or fragment, human, UniProt P32455 1-317, looked up)
chain: MASEIHMTGPMCLIENTNGRLMANPEALKILSAITQPMVVVAIVGLYRTGKSYLMNKLAGKKKGFSLGSTVQSHTKGIWMWCVPHPKKPGHILVLLDTEGLGDVEKGDNQNDSWIFALAVLLSSTFVYNSIGTINQQAMDQLYYVTELTHRIRSKSSPDENENEVEDSADFVSFFPDFVWTLRDFSLDLEADGQPLTPDEYLTYSLGGGSGGGSQKDETFNLPRLCIRKFFPKKKCFVFDRPVHRRKLAQLEKLQDEELDPEFVQQVADFCSYIFSNSKTKTLSGGIQVNGPRLESLVLTYVNAISSGDLPCMENAVL
notes: as for B1
stoichiometry N [1]: 2

B5: GBP1 Δ207-216, non-farnesylated (natural protein, human, UniProt P32455 1-592, looked up)
chain: MASEIHMTGPMCLIENTNGRLMANPEALKILSAITQPMVVVAIVGLYRTGKSYLMNKLAGKKKGFSLGSTVQSHTKGIWMWCVPHPKKPGHILVLLDTEGLGDVEKGDNQNDSWIFALAVLLSSTFVYNSIGTINQQAMDQLYYVTELTHRIRSKSSPDENENEVEDSADFVSFFPDFVWTLRDFSLDLEADGQPLTPDEYLTYSLGGGSETFNLPRLCIRKFFPKKKCFVFDRPVHRRKLAQLEKLQDEELDPEFVQQVADFCSYIFSNSKTKTLSGGIQVNGPRLESLVLTYVNAISSGDLPCMENAVLALAQIENSAAVQKAIAHYEQQMGQKVQLPTETLQELLDLHRDSEREAIEVFIRSSFKDVDHLFQKELAAQLEKKRDDFCKQNQEASSDRCSALLQVIFSPLEEEVKAGIYSKPGGYRLFVQKLQDLKKKYYEEPRKGIQAEEILQTYLKSKESMTDAILQTDQTLTEKEKEIEVERVKAESAQASAKMLQEMQRKNEQMMEQKERSYQEHLKQLTEKMENDRVQLLKEQERTLALKLQEQEQLLKEGFQKESRIMKNEIQDLQTKMRRRKACTIS
notes: as for B3
stoichiometry N [2]: 2
fold lower dimerization affinity than wild-type GBP1 [3]: 1.8 fold

B6: GBP1 Δ207-216, farnesylated (natural protein, human, UniProt P32455 1-592, looked up)
chain: MASEIHMTGPMCLIENTNGRLMANPEALKILSAITQPMVVVAIVGLYRTGKSYLMNKLAGKKKGFSLGSTVQSHTKGIWMWCVPHPKKPGHILVLLDTEGLGDVEKGDNQNDSWIFALAVLLSSTFVYNSIGTINQQAMDQLYYVTELTHRIRSKSSPDENENEVEDSADFVSFFPDFVWTLRDFSLDLEADGQPLTPDEYLTYSLGGGSETFNLPRLCIRKFFPKKKCFVFDRPVHRRKLAQLEKLQDEELDPEFVQQVADFCSYIFSNSKTKTLSGGIQVNGPRLESLVLTYVNAISSGDLPCMENAVLALAQIENSAAVQKAIAHYEQQMGQKVQLPTETLQELLDLHRDSEREAIEVFIRSSFKDVDHLFQKELAAQLEKKRDDFCKQNQEASSDRCSALLQVIFSPLEEEVKAGIYSKPGGYRLFVQKLQDLKKKYYEEPRKGIQAEEILQTYLKSKESMTDAILQTDQTLTEKEKEIEVERVKAESAQASAKMLQEMQRKNEQMMEQKERSYQEHLKQLTEKMENDRVQLLKEQERTLALKLQEQEQLLKEGFQKESRIMKNEIQDLQTKMRRRKACTIS
modifications: farnesyl moiety at the C-terminal CaaX box motif
notes: as for B2
binding result [2]: binds

B7: GBP1 D199A, farnesylated (natural protein, human, UniProt P32455 1-592, looked up)
chain: MASEIHMTGPMCLIENTNGRLMANPEALKILSAITQPMVVVAIVGLYRTGKSYLMNKLAGKKKGFSLGSTVQSHTKGIWMWCVPHPKKPGHILVLLDTEGLGDVEKGDNQNDSWIFALAVLLSSTFVYNSIGTINQQAMDQLYYVTELTHRIRSKSSPDENENEVEDSADFVSFFPDFVWTLRDFSLDLEADGQPLTPAEYLTYSLKLKKGTSQKDETFNLPRLCIRKFFPKKKCFVFDRPVHRRKLAQLEKLQDEELDPEFVQQVADFCSYIFSNSKTKTLSGGIQVNGPRLESLVLTYVNAISSGDLPCMENAVLALAQIENSAAVQKAIAHYEQQMGQKVQLPTETLQELLDLHRDSEREAIEVFIRSSFKDVDHLFQKELAAQLEKKRDDFCKQNQEASSDRCSALLQVIFSPLEEEVKAGIYSKPGGYRLFVQKLQDLKKKYYEEPRKGIQAEEILQTYLKSKESMTDAILQTDQTLTEKEKEIEVERVKAESAQASAKMLQEMQRKNEQMMEQKERSYQEHLKQLTEKMENDRVQLLKEQERTLALKLQEQEQLLKEGFQKESRIMKNEIQDLQTKMRRRKACTIS
modifications: farnesyl moiety at the C-terminal CaaX box motif
notes: GBP1, human, full-length construct with D199A in helix α4; also called pivot point mutant
binding result [4]: binds

B8: GBP1 D199A, non-farnesylated (natural protein, human, UniProt P32455 1-592, looked up)
chain: MASEIHMTGPMCLIENTNGRLMANPEALKILSAITQPMVVVAIVGLYRTGKSYLMNKLAGKKKGFSLGSTVQSHTKGIWMWCVPHPKKPGHILVLLDTEGLGDVEKGDNQNDSWIFALAVLLSSTFVYNSIGTINQQAMDQLYYVTELTHRIRSKSSPDENENEVEDSADFVSFFPDFVWTLRDFSLDLEADGQPLTPAEYLTYSLKLKKGTSQKDETFNLPRLCIRKFFPKKKCFVFDRPVHRRKLAQLEKLQDEELDPEFVQQVADFCSYIFSNSKTKTLSGGIQVNGPRLESLVLTYVNAISSGDLPCMENAVLALAQIENSAAVQKAIAHYEQQMGQKVQLPTETLQELLDLHRDSEREAIEVFIRSSFKDVDHLFQKELAAQLEKKRDDFCKQNQEASSDRCSALLQVIFSPLEEEVKAGIYSKPGGYRLFVQKLQDLKKKYYEEPRKGIQAEEILQTYLKSKESMTDAILQTDQTLTEKEKEIEVERVKAESAQASAKMLQEMQRKNEQMMEQKERSYQEHLKQLTEKMENDRVQLLKEQERTLALKLQEQEQLLKEGFQKESRIMKNEIQDLQTKMRRRKACTIS
notes: GBP1, human, full-length construct with D199A in helix α4; also called pivot point mutant; source: E. coli, pQE-80L, purified (Ni Sepharose HP, Superdex 200)
binding result [2]: binds

B9: GBP1 D199K, non-farnesylated (natural protein, human, UniProt P32455 1-592, looked up)
chain: MASEIHMTGPMCLIENTNGRLMANPEALKILSAITQPMVVVAIVGLYRTGKSYLMNKLAGKKKGFSLGSTVQSHTKGIWMWCVPHPKKPGHILVLLDTEGLGDVEKGDNQNDSWIFALAVLLSSTFVYNSIGTINQQAMDQLYYVTELTHRIRSKSSPDENENEVEDSADFVSFFPDFVWTLRDFSLDLEADGQPLTPKEYLTYSLKLKKGTSQKDETFNLPRLCIRKFFPKKKCFVFDRPVHRRKLAQLEKLQDEELDPEFVQQVADFCSYIFSNSKTKTLSGGIQVNGPRLESLVLTYVNAISSGDLPCMENAVLALAQIENSAAVQKAIAHYEQQMGQKVQLPTETLQELLDLHRDSEREAIEVFIRSSFKDVDHLFQKELAAQLEKKRDDFCKQNQEASSDRCSALLQVIFSPLEEEVKAGIYSKPGGYRLFVQKLQDLKKKYYEEPRKGIQAEEILQTYLKSKESMTDAILQTDQTLTEKEKEIEVERVKAESAQASAKMLQEMQRKNEQMMEQKERSYQEHLKQLTEKMENDRVQLLKEQERTLALKLQEQEQLLKEGFQKESRIMKNEIQDLQTKMRRRKACTIS
notes: GBP1, human, full-length construct with D199K in helix α4; also called pivot point mutant; source: E. coli, pQE-80L, purified (Ni Sepharose HP, Superdex 200)
binding result [2]: binds

B10: isolated LG domain of GBP1 Δ207-223 (domain or fragment, human, UniProt P32455 1-317, looked up)
chain: MASEIHMTGPMCLIENTNGRLMANPEALKILSAITQPMVVVAIVGLYRTGKSYLMNKLAGKKKGFSLGSTVQSHTKGIWMWCVPHPKKPGHILVLLDTEGLGDVEKGDNQNDSWIFALAVLLSSTFVYNSIGTINQQAMDQLYYVTELTHRIRSKSSPDENENEVEDSADFVSFFPDFVWTLRDFSLDLEADGQPLTPDEYLTYSLGGGSLCIRKFFPKKKCFVFDRPVHRRKLAQLEKLQDEELDPEFVQQVADFCSYIFSNSKTKTLSGGIQVNGPRLESLVLTYVNAISSGDLPCMENAVL
notes: as for B1
stoichiometry N [1]: 2
